Experiment: soluble on expression in E. coli; label from the status in PepcDB or PDB records
For “MGSDKIHHHHHHMNYTFELKELQATHIVYLHHQGDISLIPSSIRKLMQWAGPKGLINGPANKLISVYQHEGKVLSVDIGLTVPQEVEGESEISKGLLSGGLYAIGHFEIGTDEIPAAWSLMYTLTSKHQCKPCAGKSFEIYQSIPLDQHPQDKCMIDLCIPVQMIDLKLIEEKAISILTECDTAMLASVTEEGYPRPVPMGKIKADGISQIWFSTGTFSDKTIQFQLNPKAGVCFMKGGDSIVLTGKVEIVSDMEIKKALWSDWMFAHFPGGVIDPSYCILKFTSEEATYWIDNEFVKASI”, the “soluble on expression in E. coli” value was “not soluble”.
In the case of “SLQKQEKIIEMFNQIAPTYDKANRILSFGADVAWRKKACQRVMSLYLKKDLKIADIACGTGDMIEIWQESALKMEKNILNIKGIDPSSGMLNVAKEKFPNVEFIKAGAQNLPLESQSLDILSISYGIRNVVERQKALSEFARVLQKDGILVVLEFTKREKGGFIAACRDFYLKNILPSIGGIISKNKSAYEYLPNSIEGFLSKKEFILELKNAGFEMLDYKSFSFGVSSMFIAKKL”, the “soluble on expression in E. coli” value was “soluble”.
With “RKADEGKWQLVGGDIQNAIVQNICMMDDNKIACEVFGTPNGVDGRTRVCVSDASVFDFEWYEDEIYGGLIFDTFFYSPWDKLLYAKFGGIMLRSKESFITSFISPTVVQGVDVYTLAGKIRIESETPVSEVLLFDLAGRMVLRQTIDNKIYSDIDTNGLKRSGIYVVSVRLSSGQVFSHKVQV” the “soluble on expression in E. coli” value was “not soluble”.
With “MLEVLVALAIFATAAISVIRSVSQHINTVSYLEEKMFAAMVVDNQMANVMLDTGALKAKNGTEELAGRTWYWKVTPVATTQPLLKAFDVSVATAKNASPVVTVRSYVAQ” the “soluble on expression in E. coli” value was “not soluble”.
For “MDIKNWSVYNKLYVGGGISDDVQTNTSETYDKEKDCWTLDNGHLVPHNYIMYKCEPVKHRYPLEKTQYTNDFLKYLESFIGS”, the “soluble on expression in E. coli” value was “not soluble”.
For “MAHHHHHHMADYEPEDNLEQNSTLSSESIQEDISSLLRTKLAGEQWNPAKVDGWVEDIVNSILTELAELKKPYKYIVTCVFMQRTGAALSVGFISLWDNTKDGMVHVPFENDSFHCLVTVYFLKND”, the “soluble on expression in E. coli” value was “not soluble”.
In the case of “HAYKNALYDDEVSQFSNNWPLYYPLTARKFIYKHDLVDENIASKNRVELTNIERSSLNYPLAPIQVQSKEKQPNVLFILVDAWRYSDATPEVMPNVSKFAEKTVNFTQHMSGGNSTQAGIFSLFYSLPATYWESFYASQRSPVFMDTLQAEGYRMGIFGSAPLTSPPLSRTVFKKVSDLTLKQTGETAVERDQQITDKFIEFQKQDSDKPYFGFLFYDAAHGTVFPEPEFAKFKPYWERVDHILLNNDFDASLYHNRYKNSLYYIDSLIDDVLKNVDLDNTIVVISSDHGEEFNDHKMNYWGHTGNYSDVQVHVPLYVYMPNRQPEQIDYRTTHFDVVPTMMNTLFDVQGTTSSYSVGHNLFDSSAPRDWYIAGSYYNYALVGKELMLVVNPGGHSQQLNRQLKVEKEQKVPVDIIRHSLDEMSRFYKKG”, the “soluble on expression in E. coli” value was “not soluble”.
With “MYIVIMGAGRIGTLVARMLESEGHDVAIIEMNRERAREISEYISGLVIEGDATDQKVLENANIKNANAFAALTGKDDANILACILAKHLNPNIMTILRITDPGKKKIFEDVKELKTYFDIVVSPEDIAANYIFRTLVTPGFNRVLLPREGAEIIQFQIDEDCEVAGKPVKELNLPKDSLIIAVYDEKGNLTIPSGDTIIPKKGQVIIFAKNSALQEVKKIMEKKKKEQ” the “soluble on expression in E. coli” value was “soluble”.
For “MTISTTSTPHDAVFKSFLRHPDTARNFINIHLPAPLRKLCDLTTLKLEPNSFIDEDLRQYYSDLLWSVKTQEGVGYIYVVIEHQSKPEELMAFRMMRYSIAAMQNHLDAGYKELPLVIPMLFYHGCRSPYPYSLCWLDEFAEPAIARKIYSSAFPLVDITVVPDDEIMQHRKMALLELIQKHIRQRDLLGLVDQIVSLLVTGNTNDRQLKALFNYVLQTGDAQRFRAFIGEITERAPQEKEKLMTIADRLREEGAMQGKHEEALRIAQEMLDRGLDRELVMMVTRLSPDDLIAQSH”, the “soluble on expression in E. coli” value was “not soluble”.
With “MRRRRRRDGFYLAPDFRHREAEDMAGVFDIDLDQPEDAGSEDELEEGGQLNESMDHGGVGPYELGMEHCEKFEISETSVNRGPEKIRPECFELLRVLGKGGYGKVFQVRKVTGANTGKIFAMKVLKKAMIVRNAKDTAHTKAERNILEEVKHPFIVDLIYAFQTGGKPYLILEYLSG” the “soluble on expression in E. coli” value was “soluble”.
In the case of “MDRTIYDNYVKILRKELVPALGCTEPIALAYASAKAREVLGEFPEHMTVWCSGNIIKNVKGVKVPNSGGMKGVEAAAVLGLAGGDPSQALEVLEAVTQTDIKRTKELLRESFCDCCLKEGVANLYIEVQVVNGENEATVIIEQEHTNITRIEKNGKIVYAHKKEVSGEEIEVDKSLLNLADILVFAQEVDLNEVRDVLARQIRYNSRIAKEGLEHEWGAQVGRVIAEEFGTTVQWKAVASAAAGSDARMSGCSLPVIINSGSGNQGMTCSLPVIEYGKELKKSEEEIYRALCVSNLVALNQKRYIGSLSAYCGAVCAAAGAGAGITYLCGGNLEQIQNTVVNTIADAGGIVCDGAKPSCAAKIATSLQAAILSHKMAMRGLVFGSGEGLVMDCPEDTIKAVGYVGRAGMKQTDVEILNLMIGKTKIEDIEK”, the “soluble on expression in E. coli” value was “not soluble”.
For “MAHHHHHHMSENVAAAQRRWQAGMHEVEAYLNALDSARADSAKAGLYHRAQQCMQHMEKIIRLLAKRIAREANIMAERARQALTEQQRLLQRNLRKRWKTKMLVYEENASAMLAAAEQHHYAERVREDERAHEELRSVRAGGSMAHSRSSKVQHLQSEIQLYLRQHRYREAERAQAQLSRFEKQEQQSQQRNLTHLQEQRLQAMRMKQEEQLAKMKAAYQQEKQEITRTCRAELDAMTRQHEVALQAVEERRLFLHERVQAILKAYNDADTLDPRAAGQKLIRISQLLWTSREVQQSSKRI”, the “soluble on expression in E. coli” value was “not soluble”.
For “MGSDKIHHHHHHMKEKVVLAYSGGLDTSVILKWLCEKGFDVIAYVANVGQKDDFVAIKEKALKTGASKVYVEDLRREFVTDYIFTALLGNAMYEGRYLLGTAIARPLIAKRQVEIAEKEGAQYVAHGATGKGNDQVRFELTYAALNPNLKVISPWKDPEFLAKFKGRTDLINYAMEKGIPIKVSKKRPYSEDENLMHISHEAGKLEDPAHIPDEDVFTWTVSPKDAPDEETLLEIHFENGIPVKVVNLKDGTEKTDPLELFEYLNEVGAKNGVGRLDMVENRFIGIKSRGVYETPGATILWIAHRDLEGITMDKEVMHLRDMLAPKFAELIYNGFWFSPEMEFLLAAFRKAQENVTGKVTVSIYKGNVMPVARYSPYSLYNPELSSMDVEGGFDATDSKGFINIHALRLKVHQLVKKGYQR”, the “soluble on expression in E. coli” value was “soluble”.
With “MSLTKIVIIGGVAGGASAAARARRLSEDAEIIMFERGPYVSFANCGLPYHIGGDIKERSNLLLQTPESFLARFNVDVRTMNEVLRINRAAKTITVRNLLDQSEYDENYDFLLLSPGAGPVIPPIPGIQNPLTHSLRNIPDMDKIIQTLQMNKPEHATVVGGGFIGLEMMEAFHHLGIKTTLIEMADQVMTPVDREMAGFAHAEIRAKGIDLRLGAALKSVEYRPAATLPSAESGESLEHKHVEGELDLLLSNGDTLTTDILIMAIGVRPETKLAAEAGLQLGELGGIWVNEQMQTSDPAIYAVGDAVEEKDFVTGKQTLVPLAGPANRQGRMAADNMLGRNESYQGTQGTAICKIFDLAVASTGKNEKQLKREGIAYEKVYVHTASHASYYPGAEVVSFKMLFDPQTGKIFGAQAVGKDGIDKRIDVMAVAQRAGMTVEQLQHLELTYAPPFGSAKDVINQAAFVATNLIKGDAKAIHFDEIDNLTDEQVLLDVRNPMELQNMGYLPGAINIPVDQLRQHMNELPKDKEIVIYCQVGLRGNVAYRQLVNNGFKARNLIGGYRTYKFAKAEGHHHHHH” the “soluble on expression in E. coli” value was “soluble”.
For “MKESLIEAKVMDYGKLKDIQKEILYYKLYVDALKKKGIKEKVDPPPTLPKSIVSSVLTGGIPRDGPLQIELVSNDVVKIKEYNTLVKIQSDSRLPLYAIVEYRDTDIRVYLAYRENPSIVGLDLGLRHLITIVAIKDTKPWKVRFFDEPKLMEKFANFLSENQGIIKLEEMKSNAKRIIYEAVSFIEDLEPKVVAMENLEYFETKTGKGLRALQNMLENEIRRRGIRYRKIDPYNTSRVCAKCGYKKGEILGSLFVCPACGYKADRDYNAAYNIALKCYYTCLEHHHHHH”, the “soluble on expression in E. coli” value was “not soluble”.
For “ANEVNVYSYRQPYLIEPMLKNFEKDTGIKVNIIFADKGLVDRVKQEGELSPADVLLTVDISRVMEIVNADLAQKIDSKVLEKNIPAQFRDSNDQWFGLTTRARVIYTSKDRVGKLPAGFDYLDLAKPEYKGKVCVRSGKNSYNVSLFAAMIEHYGIEKTKAFLEGLKANLARKPQGGDRDQVKAIKEGICDYSIGNSYYYGKMLDDEKQKSWAEAAIINFPSGEHGTHKNISGVVIAKHSPNKANAVKLIEYLSGEKAQGLYAELNHEYPVKEGIEPSAIVKGWGTFKSDTIKLEDIAKNYEAALKLVDEVKFDDFSEKK”, the “soluble on expression in E. coli” value was “soluble”.
In the case of “MSLRQLLQKRAMQSPNLEALVGGKKRYSFQQYNERVNQLAHYLLHNGVQRGDRIGILCKNNHPFPSVMMASLKIGAVFIPLNHQLTVYELETIVKEAKLKVLVIDEEFSEVLLNVDAVKEIPYVIQTTKEGFGSFELELQKQPTTEPNVEVHEEDDAIYLFTSGTTGQAKACVIGHKNLHHYFAEIAGQREIPAGERFLSVHPLFHMSGVLSILNCIYHGVTMIFLADSNPAIIWDKIEEEKITTMLAFPAVYSYMLDELNKKERNISTFKVAQSGGTKVPETLIQKYMEKGIYMVQGYGSTEGWVVTSWHPMMGKEKMSSVGKTLKNVEVKIVHPETGHELTTNEVGEIHVKSPYMFKGYWNNEKATKKVVKDNWFNMGDAGMIDDDGFLHIMGRYKDVIIRGGDNVYPDQVEDVIHEIQGVLEVAVVGVPDDFWGEVPRAYIVKDGETTLTEESIIQYCKEKLASYKIPEVVFIDELPKNALGKVLKRELRDVVLVKEGHHHHHH”, the “soluble on expression in E. coli” value was “soluble”.
For “MGHHHHHHSHMEYHTMIRELILDGSLQLIQEGLKSGFLYPLFEKQDKGSKPITLPLDACSLSELCEMAKHLPSLNEMEHQTLQLVEEDTSVTEQDLFLRVVENNSSFTKVITLMGQKYLLPPKSSFLLSDISCMQPLLNYRKTFDVIVIDPPWQNKSVKRSNRYSYLSPLQIQQIPIPKLAAPNCLLVTWVTNRQKHLRFIKEELLSLLVCGGSC”, the “soluble on expression in E. coli” value was “not soluble”.
For “AQVEPTVAYPHIPSNGRVAGSDRIRVTHAYVGSCTNGRITDLRDVARILKGRKVAQDVQMIVVPATQAIWKQAAQEGLLEIFVDAGASVSYPSCGACLGMHSGVLGPDDICISSSNRNFVGRMGDPSAQIYLASPATVAASAVEGFIADPRRYDAEGND”, the “soluble on expression in E. coli” value was “not soluble”.
In the case of “AHHHHHHASAKWVCKICGYIYDEDAGDPDNGISPGTKFEELPDDWVCPICGAPKSEFEKLEDGSPKLMTGFVRASGYANKVRRVLFAITRGKVFPEEVVKAAGELNKIIFEKLQEMGVKKEDVVRISVDFNIEDGKIVWNLDSLEIETYKKEEEEKLALAMEEVEHMEKMFEETVKELEALSDKLREISKEISELVERMKQEYTGLKLRSE”, the “soluble on expression in E. coli” value was “soluble”.
For “GYCGPCPNNWICHRNNCYQFFNEEKTWNQSQASCLSQNSSLLKIYSKEEQDFLKLVKSYHWMGLVQIPANGSWQWEDGSSLSYNQLTLVEIPKGSCAVYGSSFKAYTEDCANLNTYICMKRAV”, the “soluble on expression in E. coli” value was “soluble”.
With “MEFYNSTNEIPEEMLKGIDLTYPQLTYLPETGILYDNTYNEKTVPIISGGGSGHEPAHVGYVGSGMLAAAVTGPLFIPPKSKNILKAIRQVNSGKGVFVIIKNFEADLKEFNEAIKEARTEGIDVRYIVSHDDISVNAYNFHKRHRGVAGTILLHKILGAFAKEGGSIDEIEQLALSLSPEIYTLGVALAPVHFPHQKTSFVLAEDEVSFGIGIHGEPGYRVEKFEGSERIAIELVNKLKAEINWQKKANKNYILLVNGLGSTTLMELYSFQYDVMRLLELEGLSVKFCKVGNLMTSCDMSGISLTLCSVKDPKWLDYLNVPTGAFAWLEHHHHHH” the “soluble on expression in E. coli” value was “soluble”.

Source: the DeepSol protein solubility set
